pKd: −log10 of the molar value. Where two headings read alike, the source gives them in different places.
Columns and labels:
fibrin (human) [1] = molecular target: fibrin (human) (UniProt P02679); experiment: co-sedimentation
fibrin (human) [2] = molecular target: fibrin (human) (UniProt P02679); experiment: radioligand binding
fibrin (human) [3] = molecular target: fibrin (human) (UniProt P02679); experiment: co-sedimentation; remark: listed apart in the source
fibrin (human) [4] = molecular target: fibrin (human) (UniProt P02679); experiment: depletion on clotting, ELISA of plasma against the serum made from it

Substance	percent bound at 96 min, non-denaturing wash (fibrin (human) [1]) [%]	pKd (fibrin (human) [2])	binding at 75 mM NaCl as percent of that at 20 mM NaCl (fibrin (human) [2]) [%]	percent of input bound (500,000 cpm/well) (fibrin (human) [2]) [%]	percent of input bound at saturation (input 3.5 μg) (fibrin (human) [2]) [%]	fold increase of percent bound, enhanced against normal clots, at 140 mM NaCl (fibrin (human) [3]) [fold]	percent bound after 16 h, after 5 M urea wash (Table 1) (fibrin (human) [3]) [%]	percent bound at 30 min, after 5 M urea wash (fibrin (human) [3]) [%]	percent bound at 30 min, non-denaturing wash (fibrin (human) [3]) [%]	percent bound at 96 min, after 5 M urea wash (fibrin (human) [3]) [%]	percent bound at 96 min, non-denaturing wash (fibrin (human) [3]) [%]	percent bound at 960 min, after 5 M urea wash (fibrin (human) [3]) [%]	percent bound to enhanced plasma clots, 40 min, HEPES-½-saline wash (fibrin (human) [3]) [%]	percent bound to fibrin-only-clots, HEPES-½-saline wash (fibrin (human) [3]) [%]	percent bound to plasma clots at 70 mM salt (fibrin (human) [3]) [%]	percent of the plasma level lost in the serum (healthy volunteer) (fibrin (human) [4]) [%]
factor H (from UniProt P08603 19-1231) (natural protein)	25	10.26	< 50	1.7	0.1	6	30	13	22	18	26	32.5	21.5	19	21.5	38
plasminogen (natural protein)							31									

Reference: publication doi:10.1101/2023.10.19.563203
